Measurements as given in patent US20170233472A1 (MacroGenics, published 2017).
Where a chain is given by its changes, count along the chain named. Names may count otherwise.

B1: DART-32 (bispecific antibody)
chain 1: QLVLTQSPSASASLGSSVKLTCTLSSGHKTDTIDWYQQQPGKAPRYLMKLEGSGSYNKGSGVPDRFSGSSSGADWYLTISSLQSEDEADYYCGTDYPGNYLFGGGTQLTVLGGGGSGGGGEVQLVESGGGLVQPGGSLRLSCAASGFTFSTYAMNWVRQAPGKGLEWVGRIRSKYNNYATYYADSVKGRFTISRDDSKNSLYLQMNSLKTEDTAVYYCVRHGNFGNSYVSWFAYWGQGTLVTVSSGGCGGGKVAALKEKVAALKEKVAALKEKVAALKE
chain 2: QAVVTQEPSLTVSPGGTVTLTCRSSTGAVTTSNYANWVQQKPGQAPRGLIGGTNKRAPWTPARFSGSLLGGKAALTITGAQAEDEADYYCALWYSNLWVFGGGTKLTVLGGGGSGGGGQEQLVESGGGLVQPGGSLRLSCAASGFTFSDYYMSWVRQAPGKGLEWVATIYPSSGKTYYADSVKGRLTISSDNAKDSLYLQMNSLRAEDTAVYYCTRDSYADDAALFDIWGQGTTVTVSSGGCGGGEVAALEKEVAALEKEVAALEKEVAALEK
notes: ROR1×CD3 two chain diabody
B2: DART-A (bispecific antibody, IgG1)
chain 1: QLVLTQSPSASASLGSSVKLTCTLSSGHKTDTIDWYQQQPGKAPRYLMKLEGSGSYNKGSGVPDRFGSGSSSGADRYLTISSLQSEDEADYYCGTDYPGNYLFGGGTQLTVLGGGGSGGGGEVQLVESGGGLVQPGGSLRLSCAASGFTFSTYAMNWVRQAPGKGLEWVGRIRSKYNNYATYYADSVKGRFTISRDDSKNSLYLQMNSLKTEDTAVYYCVRHGNFGNSYVSWFAYWGQGTLVTVSSASTKGEVAACEKEVAALEKEVAALEKEVAALEKGGGDKTHTCPPCPAPEAAGGPSVFLFPPKPKDTLMISRTPEVTCVVVDVSHEDPEVKFNWYVDGVEVHNAKTKPREEQYNSTYRVVSVLTVLHQDWLNGKEYKCKVSNKALPAPIEKTISKAKGQPREPQVYTLPPSREEMTKNQVSLWCLVKGFYPSDIAVEWESNGQPENNYKTTPPVLDSDGSFFLYSKLTVDKSRWQQGNVFSCSVMHEALHNHYTQKSLSLSPGK
chain 2: QAVVTQEPSLTVSPGGTVTLTCRSSTGAVTTSNYANWVQQKPGQAPRGLIGGTNKRAPWTPARFSGSLLGGKAALTITGAQAEDEADYYCALWYSNLWVFGGGTKLTVLGGGGSGGGGQEQLVESGGGLVQPGGSLRLSCAASGFTFSDYYMSWVRQAPGKGLEWVATIYPSSGKTYYADSVKGRFTISSDNAKNSLYLQMNSLRAEDTAVYYCARDSYADDAALFDIWGQGTTVTVSSASTKGKVAACKEKVAALKEKVAALKEKVAALKE
chain 3: not shown
notes: Three chain Fc Region-containing diabody (knob/hole IgG1 CH2-CH3 with L234A/L235A); C-terminal lysine of the Fc chains may be removed post-translationally; also called ROR1×CD3 bispecific three chain diabody with parental anti-ROR1-VL and anti-ROR1-VH
B3: DART-C (bispecific antibody)
chain 1: QLVLTQSPSASASLGSSVKLTCTLSSGHKTDTIDWYQQQPGKAPRYLMKLEGSGSYNKGSGVPDRFSGSSSGADWYLTISSLQSEDEADYYCGTDYPGNYLFGGGTQLTVLGGGGSGGGGEVQLVESGGGLVQPGGSLRLSCAASGFTFSTYAMNWVRQAPGKGLEWVGRIRSKYNNYATYYADSVKGRFTISRDDSKNSLYLQMNSLKTEDTAVYYCVRHGNFGNSYVSWFAYWGQGTLVTVSSASTKGEVAACEKEVAALEKEVAALEKEVAALEKGGGDKTHTCPPCPAPEAAGGPSVFLFPPKPKDTLMISRTPEVTCVVVDVSHEDPEVKFNWYVDGVEVHNAKTKPREEQYNSTYRVVSVLTVLHQDWLNGKEYKCKVSNKALPAPIEKTISKAKGQPREPQVYTLPPSREEMTKNQVSLWCLVKGFYPSDIAVEWESNGQPENNYKTTPPVLDSDGSFFLYSKLTVDKSRWQQGNVFSCSVMHEALHNHYTQKSLSLSPGK
chain 2: B2 chain 2 with F186L, N195D, A215T
chain 3: not shown
notes: Three chain Fc Region-containing ROR1×CD3 diabody

Experiments:
[1] = target: T1, His-tagged soluble human ROR1 (shROR1-His) (human, UniProt Q01973 30-406); assay: SPR (Biacore)
T1 construct: also called ROR1 protein; immobilized ROR1; not shown: His-Tag
T1 sequence (Q01973 30-406): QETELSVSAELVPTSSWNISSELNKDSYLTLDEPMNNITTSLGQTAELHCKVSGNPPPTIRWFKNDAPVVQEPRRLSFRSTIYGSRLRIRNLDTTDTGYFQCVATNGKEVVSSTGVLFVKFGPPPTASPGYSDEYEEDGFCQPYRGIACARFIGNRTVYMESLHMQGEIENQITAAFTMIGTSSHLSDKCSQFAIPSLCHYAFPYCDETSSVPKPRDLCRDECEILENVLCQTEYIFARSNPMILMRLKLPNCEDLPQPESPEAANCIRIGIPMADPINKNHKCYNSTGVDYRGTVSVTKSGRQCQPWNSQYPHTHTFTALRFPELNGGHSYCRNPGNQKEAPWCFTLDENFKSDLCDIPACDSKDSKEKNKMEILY

[2] = target: T1, His-tagged soluble human ROR1 …; assay: SPR (Biacore), diabody captured via anti-E/K-coil, shROR1-His as analyte
Description: The binding kinetics of DART-1 to DART-6, DART-10 to DART-17, DART-20 to DART-33 was investigated using Biacore analysis in which ROR1 protein was passed over immobilized diabodies. Briefly, each diabody construct was captured on immobilized anti-E/K-coil surface and was incubated with shROR1-His at 25 and 100 nM, and the kinetics of binding were determined via Biacore analysis.

[3] = target: T1, His-tagged soluble human ROR1 …; assay: sandwich ELISA: plate coated with shROR1-His, serial dilutions of diabody, bound diabody detected with biotinylated CD3 and streptavidin-HRP; y axis 'Mean Value'
Description: (§1) The ability of the bispecific ROR1×CD3 two and three chain diabodies DART-1 and DART-A to bind both ROR1 and CD3 was examined by a sandwich ELISA. Briefly, microtiter plates were coated with shROR1-His, the plates were washed and incubated with three-fold serial dilutions of DART-1 or DART-A. The amount of diabody binding to the immobilized ROR1 was assessed using a biotinylated CD3 detected with Streptavidin-HRP. All samples were analyzed on a plate reader and binding curves generated. […] The cells were washed twice incubated with biotin-conjugated mouse anti-EK-coil antibody that recognizes the E-coil/K-coil (EK) heterodimerization region (100 μL of 1 μg/mL mixed with 1:500 diluted streptavidin-phycoerythrin) for 45 min. The cells were then washed and resuspended with FACS buffer, and analyzed with a BD FCS Canto II flow cytometer using FlowJo v10 software.

[4] = target: T1, His-tagged soluble human ROR1 …; assay: SPR (Biacore), shROR1-His captured on anti-PentaHis surface, diabody 6.25-100 nM as analyte
Description: The binding affinity of DART-1, DART-A, DART-B, and DART-C was investigated using Biacore analysis in which each diabody construct was passed over immobilized ROR1. Briefly, shROR1-His was captured on immobilized anti-PentaHis surface and was incubated with DART-1, DART-A, DART-B or DART-C at 6.25-100 nM, and the kinetics of binding was determined via Biacore analysis.

[5] = target: T1, His-tagged soluble human ROR1 …; assay: sandwich ELISA: plate coated with shROR1-His, serial dilutions of diabody, bound diabody detected with biotinylated CD3 and streptavidin-HRP; abs @450nm
Description: as §1

[6] = target: human ROR1 expressed on the surface of cancer cells (human, UniProt Q01973 30-937); assay: cell-based or functional assay
Sequence of human ROR1 expressed on the surface of cancer cells (Q01973 30-937): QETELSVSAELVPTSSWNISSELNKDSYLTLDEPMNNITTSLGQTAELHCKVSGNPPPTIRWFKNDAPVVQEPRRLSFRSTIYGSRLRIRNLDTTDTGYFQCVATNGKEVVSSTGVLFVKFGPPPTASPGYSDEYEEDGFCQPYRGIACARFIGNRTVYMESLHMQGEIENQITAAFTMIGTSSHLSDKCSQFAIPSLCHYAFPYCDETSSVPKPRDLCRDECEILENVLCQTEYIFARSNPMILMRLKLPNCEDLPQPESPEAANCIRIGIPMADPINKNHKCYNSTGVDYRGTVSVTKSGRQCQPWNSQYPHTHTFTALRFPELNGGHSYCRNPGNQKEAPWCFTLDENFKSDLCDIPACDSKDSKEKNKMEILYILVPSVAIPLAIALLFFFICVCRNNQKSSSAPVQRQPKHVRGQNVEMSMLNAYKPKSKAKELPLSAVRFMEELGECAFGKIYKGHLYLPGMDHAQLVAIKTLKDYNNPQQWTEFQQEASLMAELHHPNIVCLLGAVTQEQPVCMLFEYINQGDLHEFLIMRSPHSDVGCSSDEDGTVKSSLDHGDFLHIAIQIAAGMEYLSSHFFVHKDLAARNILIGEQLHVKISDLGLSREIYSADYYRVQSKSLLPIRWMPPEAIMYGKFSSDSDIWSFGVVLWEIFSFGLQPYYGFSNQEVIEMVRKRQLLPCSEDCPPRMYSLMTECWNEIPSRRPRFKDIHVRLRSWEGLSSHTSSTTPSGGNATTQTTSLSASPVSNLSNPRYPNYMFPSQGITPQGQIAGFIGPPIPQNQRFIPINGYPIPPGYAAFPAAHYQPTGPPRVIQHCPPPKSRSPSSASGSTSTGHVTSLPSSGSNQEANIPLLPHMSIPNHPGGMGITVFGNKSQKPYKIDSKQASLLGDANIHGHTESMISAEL

Binder	fold enhancement of binding relative to DART-1 [1] [fold]	Kd [2] [nM]	EC50 (read off the curve) [3] [nM]	Kd [4] [nM]	EC50 (read off the curve) [5] [nM]	EC50 nM, redirected cell killing of Calu-3 cells by pan T-cells (LDH release) [6] [nM]	EC50 nM, redirected cell killing of JIMT-1 cells by pan T-cells (LDH release) [6] [nM]	EC50 nM, redirected cell killing of NCI-H1975 cells by pan T-cells (LDH release) [6] [nM]	fold enhancement of binding relative to DART-A [1] [fold]
B1	> 2	1.1	–	–	–	–	–	–	–
B2	–	–	~1	0.69	~2	0.196	0.161	0.266	–
B3	–	–	~0.8	0.25	–	–	–	–	> 2
